Results reported in patent US20180127513A1 (published 2018).
Where a chain is given by its changes, count along the chain named. In names and notes the source's numbering stands. Values belong to the binder of their own block, whether it stands above or below them.

Biological target: T1, human CD73 on cells (UniProt P21589 27-549)
T1 chain: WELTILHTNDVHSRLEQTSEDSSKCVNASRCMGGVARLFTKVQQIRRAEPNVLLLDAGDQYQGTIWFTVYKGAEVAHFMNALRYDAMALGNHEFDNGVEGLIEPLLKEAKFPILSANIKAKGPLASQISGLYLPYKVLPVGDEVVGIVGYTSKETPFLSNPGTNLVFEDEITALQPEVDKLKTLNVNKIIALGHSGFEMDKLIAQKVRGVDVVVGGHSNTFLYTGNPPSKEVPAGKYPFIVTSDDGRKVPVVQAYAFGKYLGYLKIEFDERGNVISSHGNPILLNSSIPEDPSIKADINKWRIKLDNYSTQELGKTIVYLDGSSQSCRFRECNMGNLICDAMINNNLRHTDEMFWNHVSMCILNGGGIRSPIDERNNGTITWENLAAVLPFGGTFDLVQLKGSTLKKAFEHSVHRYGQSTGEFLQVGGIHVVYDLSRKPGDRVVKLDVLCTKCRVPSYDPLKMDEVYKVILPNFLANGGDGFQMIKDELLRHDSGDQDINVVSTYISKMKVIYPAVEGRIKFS
Assay: FACS cell binding; Calu6 cells

Kd: 0.162 µg/mL
B1: CD73.10-IgG2-C219S (antibody)
heavy: QVQLVESGGGVVQPGRSLRLSCAASGFTFSNYGMHWVRQAPGKGLEWVAVIWYDESNKYYPDSVKGRFTISRDNSKNTLYLQMNSLRAEDTAVYYCARGGSSWYPDSFDIWGQGTMVTVSSASTKGPSVFPLAPCSRSTSESTAALGCLVKDYFPEPVTVSWNSGALTSGVHTFPAVLQSSGLYSLSSVVTVPSSNFGTQTYTCNVDHKPSNTKVDKTVERKSCVECPPCPAPPVAGPSVFLFPPKPKDTLMISRTPEVTCVVVDVSHEDPEVQFNWYVDGVEVHNAKTKPREEQFNSTFRVVSVLTVVHQDWLNGKEYKCKVSNKGLPAPIEKTISKTKGQPREPQVYTLPPSREEMTKNQVSLTCLVKGFYPSDIAVEWESNGQPENNYKTTPPMLDSDGSFFLYSKLTVDKSRWQQGNVFSCSVMHEALHNHYTQKSLSLSPG
light: not shown

Kd: 0.0964 µg/mL
B2: CD73.4-IgG2-C219S-IgG1.1f (antibody)
heavy: QVQLVESGGGVVQPGRSLRLSCAASGFTFSNYGMHWVRQAPGKGLEWVAVILYDGSNKYYPDSVKGRFTISRDNSKNTLYLQMNSLRAEDTAVYYCARGGSSWYPDSFDIWGQGTMVTVSSASTKGPSVFPLAPCSRSTSESTAALGCLVKDYFPEPVTVSWNSGALTSGVHTFPAVLQSSGLYSLSSVVTVPSSNFGTQTYTCNVDHKPSNTKVDKTVERKSCVECPPCPAPPVAGPSVFLFPPKPKDTLMISRTPEVTCVVVDVSHEDPEVKFNWYVDGVEVHNAKTKPREEQYNSTYRVVSVLTVLHQDWLNGKEYKCKVSNKALPSSIEKTISKAKGQPREPQVYTLPPSREEMTKNQVSLTCLVKGFYPSDIAVEWESNGQPENNYKTTPPVLDSDGSFFLYSKLTVDKSRWQQGNVFSCSVMHEALHNHYTQKSLSLSPG
light: not shown
modifications: N-terminal Gln 94% pyro-Q; 97% of heavy chains lack the C-terminal Lys

Kd: 0.156 µg/mL
B4: CD73.10-IgG2-C219S-IgG1.1f (antibody)
heavy: B2 heavy with L52W, G55E
light: not shown

The next lines start with the binder.

B3: CD73.4-IgG2-C219S (antibody)
heavy: B1 heavy with W52L, E55G
light: not shown
Kd: 0.0826 µg/mL

B5: 11F11 (antibody, V domains shown)
VH: QVQLVESGGGVVQPGRSLRLSCATSGFTFSNYGMHWVRQAPGKGLEWVAVILYDGSNKYYPDSVKGRFTISRDNSKNTLYLQMNSLRAEDTAVYYCARGGSSWYPDSFDIWGQGTMVTVSS
VL: DIQMTQSPSSLSASVGDRVTITCRASQGISSWLAWYQQKPEKAPKSLIYAASSLQSGVPSRFSGSGSGTDFTLTISSLQPEDFATYYCQQYNSYPLTFGGGTKVEIKR
Kd: 0.188 µg/mL
